The numbers were not newly measured in PMC5559722, which cites them from elsewhere.

Read-outs that look alike come from different tables or passages of the source.

The target in series [1] is p97 C-terminal peptide (Homo sapiens) (UniProt P55072).
The target of series [2] is p97 N-domain (UniProt P55072).
Series [3] addresses RNF31 PUB (Homo sapiens) (UniProt Q96EP0).
For series [4], the target named is p97 N-domain (UniProt P55072). As to the kind of experiment: ITC. (Isothermal titration calorimetry measures the heat released or taken up as one component is titrated into another.)
The target of series [5] is p97 N-domain (UniProt P55072). This is another data set of the same source.
The target of series [6] is p97 N-domain (UniProt P55072). This is another data set of the same source.

As a reminder, the Kd is the concentration at which binding is half-saturated. Regarding RNF31 PUB (from UniProt Q96EP0), in series [1], the Kd was 50 µM.

NPL4 UBXL (from UniProt Q8TAT6): the Kd in series [2] is 18 µM.

As for OTULIN (from UniProt Q96BN8), the dissociation constant (Kd) in series [3] was 0.3 µM.

For the substance OTU1 UBXL (from UniProt Q5VVQ6), in series [4], the Kd is 0.7 µM.

For the substance p47 UBX (from UniProt Q9UNZ2), the Kd in series [5] was 1 µM.

For the substance FAF1 UBX (from UniProt Q9UNN5), in series [6], the Kd was 1 µM.
